Laboratory results as given in patent US20230056815A1 (VIELA BIO, published 2023).
Numbering of substitutions follows the chain as printed.

Assays:
[1] = target: T1, cynomolgus monkey FLT3L on CHO cells (cynomolgus monkey); experiment: flow cytometry on CHO cells expressing full-length cyno FLT3L, PE anti-hu IgG
T1 construct: whole, on cells; also called cell surface cyno FLT3L
Description: (§1) Consistent with this, cell surface binding to human, cyno, and mouse FLT3L was evaluated by transfecting Chinese hamster ovary (CHO) cells with the respective full-length protein for each species. Candidate clones were incubated with FLT3L-expressing cell lines for 1 hour at 4° C. before being washed twice to remove unbound antibody. Cells were then incubated with PE-labeled goat anti-hu IgG secondary detection pAb to quantitate bound antibody which was measured by flow cytometric analysis of PE signal. The huFLT3-Fc construct, on a hu IgG backbone, was used as a positive control reagent for FLT3L expression as it cross reacts with cyno and mouse, in addition to human ligand.
(§2) As differences were apparent in the degree of receptor occupancy for each clone, both EC50 and max occupancy were noted (expressed as percent relative to FLT3-Fc) and taken into account in the final evaluation. Results are shown in Table 4 for human, cyno, and mouse FLT3L expressed in CHO cells.

[2] = target: T2, human soluble FLT3L (recombinant huFLT3L) (human, UniProt P49771 27-184); experiment: cell-based or functional assay
T2 sequence (looked up): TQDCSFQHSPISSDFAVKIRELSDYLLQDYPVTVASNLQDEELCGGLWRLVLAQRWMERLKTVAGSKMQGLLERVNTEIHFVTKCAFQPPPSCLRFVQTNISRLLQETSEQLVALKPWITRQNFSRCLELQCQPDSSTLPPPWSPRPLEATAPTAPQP

[3] = target: cynomolgus monkey soluble FLT3L (cynomolgus monkey); experiment: cell-based or functional assay
[4] = target: T3, recombinant human colony stimulating factor 1 (CSF1) (human, UniProt P09603 33-190, limits assumed); experiment: ELISA on coated recombinant human CSF1
T3 construct: also called huCSF1; huCSF
T3 sequence (looked up): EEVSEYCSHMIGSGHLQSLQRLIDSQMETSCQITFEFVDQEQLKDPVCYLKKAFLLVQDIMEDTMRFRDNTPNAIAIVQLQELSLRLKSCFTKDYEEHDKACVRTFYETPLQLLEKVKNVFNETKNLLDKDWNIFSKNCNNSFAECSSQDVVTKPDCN
Description: (§3) To test this, an ELISA plate was coated with 2 µg of recombinant human SCF or CSF1. After washing, the plate was blocked with 3% milk in Tris-Phosphate Buffered Saline (TPBS) and lead antibodies were added in serial (×2) dilution, starting at 50 µg/ml. After incubation, unbound antibody was removed by washing and bound antibody was detected using anti-human IgG-HRP in combination with TMB substrate for color development. Commercially available goat anti-SCF pAb and mouse anti-CSF1 mAb were used as positive binding controls.

[5] = target: T4, human FLT3L on the cell surface (human, UniProt P49771 27-235); experiment: flow cytometry on CHO cells expressing full-length human FLT3L, PE anti-hu IgG
T4 construct: whole, on cells; The assay field of each row says which cells carried it; also called cell-surface FLT3L; huFLT3L-expressing CHO cells
T4 sequence (looked up): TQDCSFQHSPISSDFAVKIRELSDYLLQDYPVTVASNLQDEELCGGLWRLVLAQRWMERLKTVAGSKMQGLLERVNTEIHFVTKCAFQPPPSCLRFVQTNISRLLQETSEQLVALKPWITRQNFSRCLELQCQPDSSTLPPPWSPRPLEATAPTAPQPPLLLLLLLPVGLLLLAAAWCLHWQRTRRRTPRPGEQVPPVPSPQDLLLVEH
Description: as §1, §2

[6] = target: T5, recombinant human stem cell factor (SCF) (human, UniProt P21583 26-189); experiment: ELISA on coated recombinant human SCF
T5 construct: also called huSCF; KIT-ligand
Description: as §3

mouse FLT3L on CHO cells [7] = target: T6, mouse FLT3L on CHO cells (mouse, UniProt P49772 27-232); experiment: flow cytometry on CHO cells expressing mouse FLT3L, anti-hu IgG-PE detection
T6 construct: whole, on cells; also called cell surface mouse FLT3L
T6 sequence (looked up): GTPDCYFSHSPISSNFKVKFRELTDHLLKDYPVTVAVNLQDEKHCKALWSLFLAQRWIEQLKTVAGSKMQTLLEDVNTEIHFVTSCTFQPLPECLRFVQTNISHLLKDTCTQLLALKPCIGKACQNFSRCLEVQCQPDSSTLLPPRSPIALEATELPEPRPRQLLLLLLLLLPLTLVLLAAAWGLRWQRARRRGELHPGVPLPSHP
Description: as §1

[8] = target: T2, human soluble FLT3L (recombinant …); experiment: Biacore, Fab, kinetic (koff/kon)
[9] = target: T2, human soluble FLT3L (recombinant …); experiment: Biacore, Fab
[10] = target: T2, human soluble FLT3L (recombinant …); experiment: Biacore
[11] = target: T7, cynomolgus monkey soluble FLT3L (cynomolgus monkey); experiment: Biacore
T7 construct: extracellular domain; also called cyno sFLT3L; cyno FLT3L

mouse soluble FLT3L = target: T8, mouse soluble FLT3L (mouse, UniProt P49772 27-189); experiment: cell-based or functional assay
T8 sequence (looked up): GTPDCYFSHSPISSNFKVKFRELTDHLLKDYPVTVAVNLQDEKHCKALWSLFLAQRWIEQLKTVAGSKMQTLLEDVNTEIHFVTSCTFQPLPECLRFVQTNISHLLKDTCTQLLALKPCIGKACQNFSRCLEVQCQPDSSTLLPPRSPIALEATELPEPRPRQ

[12] = target: T2, human soluble FLT3L (recombinant …); experiment: cell-based or functional assay; remark: listed apart in the source
mouse FLT3L on CHO cells [13] = target: T6, mouse FLT3L on CHO cells; experiment: flow cytometry on CHO cells expressing full-length mouse FLT3L, PE anti-hu IgG
Description: as §1, §2

T5 sequence (P21583 26-189 limits assumed): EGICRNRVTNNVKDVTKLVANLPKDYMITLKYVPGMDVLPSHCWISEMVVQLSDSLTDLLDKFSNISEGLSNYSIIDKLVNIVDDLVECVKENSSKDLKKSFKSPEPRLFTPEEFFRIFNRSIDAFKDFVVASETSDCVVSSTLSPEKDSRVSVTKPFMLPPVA

B1: CAT8 antibody (IgG1 TM format) (antibody, V domains shown)
VH: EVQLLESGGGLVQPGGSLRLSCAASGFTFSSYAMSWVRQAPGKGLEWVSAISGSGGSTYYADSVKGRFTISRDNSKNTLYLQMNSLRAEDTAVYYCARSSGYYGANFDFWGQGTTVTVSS
VL: QSVLTQPPSASGTPGQRVAISCSGSSSNIGSGYVYWYQQVPGTAPTLLIHRNNQRPSGVPDRFSGSKSGTSASLAISGLRSEDEADYYCAAWDDSLSGYVFGTGTKVTV
notes: Human antibody from phage display
With B1 the EC50 [1] was 9 nM, the “maximum occupancy (% relative to FLT3-Fc)” value [1] was 32% and the “IC50 (nM), inhibition of FLT3 downregulation on RS4;11 cells” value (from here on “IC50 (nM), inhibition”) [2] was 43.5 nM. For the same binder, the “IC50 (nM), inhibition” value [3] was 3000 nM, the binding result [4] was “no binding (tested: about 0.3 uM)” and the EC50 [5] was 0.08 nM. The “maximum occupancy (% relative to FLT3-Fc)” value [5] was 60%, the binding result [6] was “no binding (tested: about 0.3 uM)” and the binding result (mouse FLT3L on CHO cells [7]) was “no binding (tested: x = -7.2 (x axis without title or unit))”.

B2: CAT8 Fab (Fab, V domains shown)
VH: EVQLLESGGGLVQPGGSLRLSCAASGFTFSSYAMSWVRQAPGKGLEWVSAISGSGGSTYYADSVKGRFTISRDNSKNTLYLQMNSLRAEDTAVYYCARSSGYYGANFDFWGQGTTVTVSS
VL: B1 VL
Work on B2 yielded a Kd [8] of 8.85 nM, a koff [9] of 0.00556 s⁻¹ and a kon [9] of 628000 M⁻¹ s⁻¹.

B3: AM40 (MEDI1116) antibody (antibody, V domains shown)
VH: QVQLVQSGAEVKKPGSSVKVSCKASGGTFSSYALSWVRQAPGQGLEWMGTRPPTSRTASYAQKFQGRVTITVDESTSTGYMELSSLRSEDTAVYYCASNDFVYGSYRFWGQGTTVTVSS
VL: NFMLTQPHSVSESPGKTVTISCTRTSGNIAGYFVQWYQQRPGSSPTTVIYEDYQRPSGVPDRFSGSIDSSSNSASLTISGLKTEDEADYYCQSYDDYRRAAFGGGTKLTVLG
B3 gave a Kd [10] of 0.17 nM, a koff [10] of 0.00018 s⁻¹ and a kon [10] of 1.09e+06 M⁻¹ s⁻¹. For the same binder, the Kd [11] was 0.063 nM, the koff [11] was 0.00017 s⁻¹ and the kon [11] was 2.66e+06 M⁻¹ s⁻¹.

B4: SC4017 antibody (antibody, V domains shown)
VH: B3 VH
VL: B3 VL with N28W
B4 gave a Kd [10] of 0.037 nM, a koff [10] of 5e-05 s⁻¹ and a kon [10] of 1.45e+06 M⁻¹ s⁻¹. The Kd [11] was 0.0088 nM, the koff [11] was 5e-05 s⁻¹ and the kon [11] was 5.84e+06 M⁻¹ s⁻¹.

B5: Dyax5 antibody (IgG1 TM format) (antibody, V domains shown)
VH: EVQLLESGGGLVQPGGSLRLSCAASGFTFSSYIMVWVRQAPGKGLEWVSSIYSSGGSTSYADSVKGRFTISRDNSKNTLYLQMNSLRAEDTAVYYCTRYSRWFGQLGFYSHYAMDVWSQGTTVTVSS
VL: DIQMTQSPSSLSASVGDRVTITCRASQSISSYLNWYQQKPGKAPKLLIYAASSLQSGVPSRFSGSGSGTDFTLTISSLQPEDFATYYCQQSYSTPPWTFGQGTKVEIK
B5 was tested, and the “IC50 (nM), inhibition” value [2] was 245 nM, the “IC50 (nM), inhibition” value (mouse soluble FLT3L) was 354 nM and the “IC50 (nM), inhibition” value [3] was 6020 nM. The EC50 [5] was 0.66 nM, the “maximum occupancy (% relative to FLT3-Fc)” value [5] was 28% and the “IC50 (nM) against 0.476 nM FLT3L, ERK phosphorylation in CD133+ stem cells” value [12] was 25 nM. The EC50 (mouse FLT3L on CHO cells [13]) was 0.11 nM and the “maximum occupancy (% relative to FLT3-Fc)” value (mouse FLT3L on CHO cells [13]) was 51%.

B6: Dyax5 Fab (Fab, V domains shown)
VH: B5 VH
VL: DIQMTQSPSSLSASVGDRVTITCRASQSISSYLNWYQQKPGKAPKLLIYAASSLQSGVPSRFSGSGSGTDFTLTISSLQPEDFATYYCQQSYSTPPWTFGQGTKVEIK
B6 was tested, and the Kd [8] was 22 nM, the koff [9] was 0.00501 s⁻¹ and the kon [9] was 228000 M⁻¹ s⁻¹.

B7: Dyax3 antibody (IgG1 TM format) (antibody, V domains shown)
VH: EVQLLESGGGLVQPGGSLRLSCAASGFTFSMYEMRWVRQAPGKGLEWVSVIPSGGKTFYADSVKGRFTISRDNSKNTLYLQMNSLRAEDTAVYYCARYSRWFGQLGFYSHYAMDVWSQGTTVTVSS
VL: DIQMTQSPSSLSASVGDRVAITCRASQSIDTYLNWYQQKPGKAPKLLIYAASKLEDGVPSRFSGSGTGTDFTLTIRSLQPEDFASYFCQQSYSSPGITFGPGTKVEIK
notes: also called DTAX3
For B7, the EC50 [1] was 1.8 nM, the “maximum occupancy (% relative to FLT3-Fc)” value [1] was 35% and the “IC50 (nM), inhibition” value [2] was 54.8 nM. The “IC50 (nM), inhibition” value (mouse soluble FLT3L) was 1490 nM, the “IC50 (nM), inhibition” value [3] was 3070 nM and the EC50 [5] was 0.27 nM. For the same binder, the “maximum occupancy (% relative to FLT3-Fc)” value [5] was 33%, the “IC50 (nM) against 0.476 nM FLT3L, ERK phosphorylation in CD133+ stem cells” value [12] was 2.4 nM and the “IC50 (nM) against 0.476 nM FLT3L, MEK phosphorylation in CD133+ stem cells” value [12] was 93 nM. The EC50 (mouse FLT3L on CHO cells [13]) was 0.39 nM and the “maximum occupancy (% relative to FLT3-Fc)” value (mouse FLT3L on CHO cells [13]) was 16%.

B8: Dyax3 Fab (Fab, V domains shown)
VH: B7 VH
VL: B7 VL
Binder B8 has a Kd [8] of 18.7 nM, a koff [9] of 0.00123 s⁻¹ and a kon [9] of 66000 M⁻¹ s⁻¹.

B9: CAT26 antibody (IgG1 TM format) (antibody, V domains shown)
VH: EVQLLESGGGLVQPGGSLRLSCAASGFTFSSYAVSWVRQAPGKGLEWVSAISGSGGSTYYADSVKGRFTISRDNSKNTLYLQMNSLRAEDTAVYYCVKDAYGSSWYFYYFDYWGQGTMVTVSS
VL: QSVLTQPPSASGTPGQRVTISCSGSSSNIGINPVNWYQQLPGTAPKVLIYSDKYRPSGVADRFSGSKSGTSASLAISGLQSEDEADYFCAAWDDSLNGRVFGTGTKLTVL
With B9 the EC50 [1] was 1.1 nM, the “maximum occupancy (% relative to FLT3-Fc)” value [1] was 96% and the “IC50 (nM), inhibition” value [2] was 618 nM. The “IC50 (nM), inhibition” value [3] was 2580 nM, the binding result [4] was “no binding (tested: about 0.3 uM)” and the EC50 [5] was 0.19 nM. The “maximum occupancy (% relative to FLT3-Fc)” value [5] was 46%, the binding result [6] was “no binding (tested: about 0.3 uM)” and the binding result (mouse FLT3L on CHO cells [7]) was “no binding (tested: x = -7.2 (x axis without title or unit))”.

B10: CAT26 Fab (Fab, V domains shown)
VH: B9 VH
VL: B9 VL
In the case of B10, the Kd [8] is reported as 4.37 nM, the koff [9] is reported as 0.00084 s⁻¹ and the kon [9] is reported as 191000 M⁻¹ s⁻¹.
